From publication PMC3234234, “A Host Small GTP-binding Protein ARL8 Plays Crucial Roles in Tobamovirus RNA Replication” (PLoS Pathogens, 2011) come the findings set out here.

The target in assay [1] is AtARL8a-Cub-PLV (split-ubiquitin bait) (Arabidopsis thaliana) (UniProt Q8VY57). Briefly: two-hybrid; split-ubiquitin assay in yeast reporter strain L40; Cub-PLV fusion as bait, NubG fusion as prey; beta-galactosidase activity (Miller units).
Assay [2] has as its target T1, AtTOM1-Cub-PLV (split-ubiquitin bait) (Arabidopsis thaliana, UniProt Q9FEG2 1-291).
T1 construct: Arabidopsis thaliana TOM1, seven-pass transmembrane protein; source: yeast two-hybrid fusion (split-ubiquitin, reporter strain L40); not shown: Cub-PLV, C-terminal, kept
T1 sequence (looked up): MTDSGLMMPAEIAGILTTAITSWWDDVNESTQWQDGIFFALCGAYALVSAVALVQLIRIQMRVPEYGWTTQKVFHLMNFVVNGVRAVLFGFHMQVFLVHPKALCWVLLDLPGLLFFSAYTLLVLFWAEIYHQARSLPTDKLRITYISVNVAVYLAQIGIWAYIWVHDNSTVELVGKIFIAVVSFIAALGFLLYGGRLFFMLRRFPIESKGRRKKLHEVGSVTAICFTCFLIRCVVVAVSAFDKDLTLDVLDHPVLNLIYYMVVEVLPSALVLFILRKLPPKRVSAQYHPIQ
The assay is described as above. The note with it: partners not purified.

In turn, “NubG-HEL: helicase domain polypeptide of ToMV replication proteins (residues 648-1116 of the 130K protein) (domain or fragment)” yielded a fold weaker signal (beta-galactosidase) than the TOM1-helicase domain pair in assay [1] of 13 times weaker.

B1: AtARL8a-NubG (split-ubiquitin prey) (natural protein, Arabidopsis thaliana, UniProt Q8VY57 1-184, looked up)
chain: MGLLEAFLNWLRSLFFKQEMELSLIGLQNAGKTSLVNVVATGGYSEDMIPTVGFNMRKVTKGNVTIKLWDLGGQPRFRSMWERYCRAVSAIVYVVDAADPDNLSVSKSELHDLLSKTSLNGIPLLVLGNKIDKPGALSKEALTDEMGLTSLTDREVCCFMISCKNSTNIDQVIDWLVKHSKSKN
notes: Arabidopsis thaliana ARL8a; 'a DNA fragment corresponding to the AtARL8a-coding region' put in place of TOM1 in pTN-TOM1-NubG; also called ARL8-NubG; source: yeast two-hybrid fusion (split-ubiquitin, reporter strain L40); not shown: NubG, C-terminal, kept
Consider B1, for which the “fold weaker signal (beta-galactosidase) than the TOM1-helicase domain pair” value in assay [2] was found to be 6 times weaker.
